From US5760185
Like-named read-outs stand apart in the source and are kept apart here.

Legend:
[1] = biological target: feline herpes virus-1 (FHV-1) viral particle, K1 strain
[2] = biological target: feline herpes virus-1 (FHV-1) viral particle, K1 strain; remark: listed apart in the source

B1: anti-FHV-1 chimeric antibody FH2 (antibody, V domains shown)
VH: QVTLKESGPGILQPSQTLSLTCSFSGFSLSTSGMGAGWIRQPSGKGLEWLAHIWWDDVKRYNPALKSRLTISKDTSSSQVFLKIASVDTADTATYFCVRSQIYFDYDGAWFPFWGQGTLVTVSA
VL: DIVLTQSPATLSVTPGDSVSLSCRASQSISNNLHWYQQKSHESPRLLIKYASQSISGIPSRFSGSGSGTDFTLSINSVETEDFGMYFCQQSNSWPHTFGAGTKLELKS
With B1 the Minimum Effective Concentration for Neutralization [1] was 1.95 µg/mL.

B2: mouse monoclonal antibody JH2 (antibody, V domains shown)
VH: B1 VH
VL: DIVLTQSPATLSVTPGDSVSLSCRASQSISNNLHWYQQKSHESPRLLIKYASQSISGIPSRFSGSGSGTDFTLSINSVETEDFGMYFCQQSNSWPHTFGAGTKLELK
Binder B2 has a Minimum Effective Concentration for Neutralization [2] of 0.39 µg/mL and a Minimum Effective Concentration for Neutralization [1] of 1.25 µg/mL.
